# Laboratory results taken from article doi:10.1101/2021.12.06.471490 (bioRxiv, 2021).
# B1: GST-TOG1/2 (the two TOG domains of Stu2 fused to a GST tag; Stu2 1-590) (domain or fragment, S. cerevisiae (budding yeast), UniProt P46675 1-590, looked up)
# chain: MSGEEEVDYTTLPLEERLTYKLWKARLEAYKELNQLFRNSVGDISRDDNIQIYWRDPTLFAQYITDSNVVAQEQAIVALNSLIDAFASSSLKNAHNITLISTWTPLLVEKGLTSSRATTKTQSMSCILSLCGLDTSITQSVELVIPFFEKKLPKLIAAAANCVYELMAAFGLTNVNVQTFLPELLKHVPQLAGHGDRNVRSQTMNLIVEIYKVTGNNSDLLEEILFKKLKPIQVKDLHKLFAKVGDEPSSSKMLFEWEKRELEKKRSQEEEARKRKSILSNDEGEYQIDKDGDTLMGMETDMPPSKQQSGVQIDTFSMLPEETILDKLPKDFQERITSSKWKDRVEALEEFWDSVLSQTKKLKSTSQNYSNLLGIYGHIIQKDANIQAVALAAQSVELICDKLKTPGFSKDYVSLVFTPLLDRTKEKKPSVIEAIRKALLTICKYYDPLASSGRNEDMLKDILEHMKHKTPQIRMECTQLFNASMKEEKDGYSTLQRYLKDEVVPIVIQIVNDTQPAIRTIGFESFAILIKIFGMNTFVKTLEHLDNLKRKKIEETVKTLPNFSIASGSTHSTIETNKQTGPMENKFLLK
# Target: yeast tubulin heterodimer, Tub1-WT (internal 6X-His) with Tub2 (S. cerevisiae (budding yeast), UniProt P09733 1-447; P02557 1-457)
# Assay: pull-down
# yeast tubulin heterodimer, Tub1-WT (internal 6X-His) with Tub2, sequence (P09733 whole entry, chain 1 of 2): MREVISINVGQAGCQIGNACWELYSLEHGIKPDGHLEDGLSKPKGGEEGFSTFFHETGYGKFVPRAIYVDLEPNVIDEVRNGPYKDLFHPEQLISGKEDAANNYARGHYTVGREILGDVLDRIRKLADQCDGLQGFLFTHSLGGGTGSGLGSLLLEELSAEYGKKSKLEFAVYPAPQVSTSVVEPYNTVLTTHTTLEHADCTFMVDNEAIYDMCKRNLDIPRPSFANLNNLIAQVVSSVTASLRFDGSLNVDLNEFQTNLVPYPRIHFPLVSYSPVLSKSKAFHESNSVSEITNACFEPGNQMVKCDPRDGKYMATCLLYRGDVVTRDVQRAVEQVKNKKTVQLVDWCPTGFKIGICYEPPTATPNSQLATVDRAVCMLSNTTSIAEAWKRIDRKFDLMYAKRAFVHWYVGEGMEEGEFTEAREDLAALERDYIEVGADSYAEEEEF
# yeast tubulin heterodimer, Tub1-WT (internal 6X-His) with Tub2, sequence (P02557 whole entry, chain 2 of 2): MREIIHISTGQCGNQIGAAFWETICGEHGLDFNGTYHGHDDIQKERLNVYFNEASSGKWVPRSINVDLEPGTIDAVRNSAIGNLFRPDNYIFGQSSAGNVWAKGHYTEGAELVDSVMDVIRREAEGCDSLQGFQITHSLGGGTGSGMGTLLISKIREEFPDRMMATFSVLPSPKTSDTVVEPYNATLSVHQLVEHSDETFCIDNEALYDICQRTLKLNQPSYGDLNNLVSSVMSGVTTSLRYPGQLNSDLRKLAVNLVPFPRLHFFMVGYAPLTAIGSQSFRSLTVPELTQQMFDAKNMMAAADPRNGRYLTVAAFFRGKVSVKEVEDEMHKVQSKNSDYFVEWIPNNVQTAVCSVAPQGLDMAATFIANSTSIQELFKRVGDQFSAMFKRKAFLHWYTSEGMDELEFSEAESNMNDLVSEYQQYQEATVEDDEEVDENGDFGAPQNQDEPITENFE
binder,measurement,value
B1,binding result,binds
